According to US20230374484:
Numbering of substitutions follows the chain as printed.

B1: An96 fIX (ancestral sequence 96 factor IX) (protein)
chain: YNSGKLEEFVRGNLERECIEEKCSFEEAREVFENTEKTTEFWKQYVDGDQCESNPCLNGGSCKDDINSYECWCRFGFEGKNCELDATCSIKNGRCKQFCKKSADNKVVCSCTEGYRLAEDQKSCEPAVPFPCGRVSVSHTSKKLTRAETIFSNMDYENSTEAETILDNVTQSTQSFNDFTRVVGGENAKPGQFPWQVLLNGKIDAFCGGSIINEKWVVTAAHCIEPGVKITVVAGEHNIEKTEPTEQKRNVIRVIPHHNYNATINKYSHDIALLELDKPLTLNSYVTPICIANREYTNIFLKFGSGYVSGWGRVFNRGRSASILQYLRVPLVDRATCLRSTKFTIYNNMFCAGYHEGGKDSCQGDSGGPHVTEVEGTSFLTGIISWGEECAMKGKYGIYTKVSRYVNWIKEKTKLT
B2: fIX optimized sequence Beta (no Padua) (protein)
chain: YNSGKLEEFVQGNLERECMEEKCSFEEAREVFENTERTTEFWKQYVDGDQCESNPCLNGGSCKDDINSYECWCPFGFEGKNCELDATCNIKNGRCEQFCKNSADNKVVCSCTEGYRLAENQKSCEPAVPFPCGRVSVSQTSKLTRAETVFPDVDYVNSTEAETILDNITQSTQSFNDFTRVVGGEDAKPGQFPWQVVLNGKVDAFCGGSIVNEKWIVTAAHCVETGVKITVVAGEHNIEETEHTEQKRNVIRIIPHHNYNAAINKYNHDIALLELDEPLVLNSYVTPICIANKEYTNIFLKFGSGYVSGWGRVFHRGRSASVLQYLRVPLVDRATCLRSTKFTIYNNMFCAGFHEGGRDSCQGDSGGPHVTEVEGTSFLTGIISWGEECAMKGKYGIYTKVSRYVNWIKEKTKLT
B3: fIX optimized sequence Delta (no Padua) (protein)
chain: B2 chain with E277K, V280T, K293R
B4: fIX optimized sequence Beta (with Padua) (protein)
chain: B2 chain with R338L
B5: fIX optimized sequence Gamma (with Padua) (protein)
chain: B2 chain with E277K, R338L
B6: fIX optimized sequence Gamma (no Padua) (protein)
chain: B2 chain with E277K

Target: T1, activated clotting factor VIII (fVIIIa), P00451
T1 chain: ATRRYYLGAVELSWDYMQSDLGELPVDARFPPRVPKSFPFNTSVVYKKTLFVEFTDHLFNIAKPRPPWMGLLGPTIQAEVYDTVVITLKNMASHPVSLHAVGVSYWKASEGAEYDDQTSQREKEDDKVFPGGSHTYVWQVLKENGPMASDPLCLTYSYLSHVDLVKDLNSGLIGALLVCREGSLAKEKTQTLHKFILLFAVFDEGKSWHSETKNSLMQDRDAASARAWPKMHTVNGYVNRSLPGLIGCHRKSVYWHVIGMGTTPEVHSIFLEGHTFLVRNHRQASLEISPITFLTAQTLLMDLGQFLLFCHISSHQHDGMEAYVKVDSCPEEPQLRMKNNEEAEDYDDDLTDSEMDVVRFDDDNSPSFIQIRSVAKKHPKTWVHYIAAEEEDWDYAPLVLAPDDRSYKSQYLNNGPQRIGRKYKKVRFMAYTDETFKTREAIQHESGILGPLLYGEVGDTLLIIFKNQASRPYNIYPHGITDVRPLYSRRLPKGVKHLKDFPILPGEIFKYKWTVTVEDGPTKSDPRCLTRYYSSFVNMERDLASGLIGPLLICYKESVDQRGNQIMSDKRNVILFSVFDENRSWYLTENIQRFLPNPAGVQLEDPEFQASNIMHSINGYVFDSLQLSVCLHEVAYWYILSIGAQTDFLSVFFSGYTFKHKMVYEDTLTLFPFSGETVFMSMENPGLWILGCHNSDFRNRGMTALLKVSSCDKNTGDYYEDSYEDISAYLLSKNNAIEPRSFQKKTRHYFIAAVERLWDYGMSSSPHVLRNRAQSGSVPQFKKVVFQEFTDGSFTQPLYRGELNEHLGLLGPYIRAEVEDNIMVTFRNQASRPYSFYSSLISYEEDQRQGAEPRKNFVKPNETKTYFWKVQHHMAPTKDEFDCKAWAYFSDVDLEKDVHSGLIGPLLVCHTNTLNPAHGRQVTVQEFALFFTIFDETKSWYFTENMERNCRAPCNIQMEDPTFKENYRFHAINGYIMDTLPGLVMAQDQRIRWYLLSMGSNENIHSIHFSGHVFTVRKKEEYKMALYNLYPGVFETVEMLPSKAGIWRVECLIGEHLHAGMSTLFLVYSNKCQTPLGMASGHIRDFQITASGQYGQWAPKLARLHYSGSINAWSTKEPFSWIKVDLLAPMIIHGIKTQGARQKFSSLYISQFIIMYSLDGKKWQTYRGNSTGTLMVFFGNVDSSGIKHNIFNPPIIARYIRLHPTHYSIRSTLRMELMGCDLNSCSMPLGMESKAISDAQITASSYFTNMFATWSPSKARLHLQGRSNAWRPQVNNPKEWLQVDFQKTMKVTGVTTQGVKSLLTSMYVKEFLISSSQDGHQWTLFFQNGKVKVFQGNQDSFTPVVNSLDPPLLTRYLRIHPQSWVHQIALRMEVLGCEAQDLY

fIX activity (one-stage APTT-dependent coagulation assay), exhibits higher fIX activity:
B1
B2
B3
B4
B5
B6
